US20190100598A1 (CELLDEX THERAPEUTICS, published 2019)

Key:
[1] = molecular target: T1, recombinant D5 domain polypeptide of human KIT (N410 to H515, with 5xHis tag) (human, UniProt P10721 26-519); test: solid phase ELISA, D5 antigen coated on the plate
T1 construct: The end residue 144 was computed (33 + 106 + 5); also called D5 region; D5 domain of human KIT

[2] = molecular target: T2, recombinant KIT D4/D5 polypeptide (D4/D5 region of human KIT, V308 to H515, with 5xHis tag) (human, UniProt P10721 26-519); test: competition solid phase ELISA on KIT D4/D5 antigen; reference 37M titrated with competitor antibody 37C at 10 nM
T2 construct: The end residue 246 was computed from the stated composition (33 + 208 + 5); This is the glycosylated (untreated) form; also called KIT D4/D5 antigen; KIT immunogen

[3] = molecular target: T3, recombinant D4 domain polypeptide of human KIT (V308 to K412, with 6xHis tag) (human, UniProt P10721 26-412); test: solid phase ELISA, antigen coated on plate; D4 region alone
T3 construct: The end residue 144 was computed (33 + 105 + 6); also called D4 region; D4 domain of human KIT

[4] = molecular target: full-length, wild-type human KIT (human, UniProt P10721 26-976); test: cell-based or functional assay
[5] = molecular target: T2, recombinant KIT D4/D5 polypeptide …; test: competition solid phase ELISA on KIT D4/D5 antigen; reference 37M titrated alone, no competitor

Chain of full-length, wild-type human KIT (P10721 other isoform, or with tags, fused parts or gaps limits assumed): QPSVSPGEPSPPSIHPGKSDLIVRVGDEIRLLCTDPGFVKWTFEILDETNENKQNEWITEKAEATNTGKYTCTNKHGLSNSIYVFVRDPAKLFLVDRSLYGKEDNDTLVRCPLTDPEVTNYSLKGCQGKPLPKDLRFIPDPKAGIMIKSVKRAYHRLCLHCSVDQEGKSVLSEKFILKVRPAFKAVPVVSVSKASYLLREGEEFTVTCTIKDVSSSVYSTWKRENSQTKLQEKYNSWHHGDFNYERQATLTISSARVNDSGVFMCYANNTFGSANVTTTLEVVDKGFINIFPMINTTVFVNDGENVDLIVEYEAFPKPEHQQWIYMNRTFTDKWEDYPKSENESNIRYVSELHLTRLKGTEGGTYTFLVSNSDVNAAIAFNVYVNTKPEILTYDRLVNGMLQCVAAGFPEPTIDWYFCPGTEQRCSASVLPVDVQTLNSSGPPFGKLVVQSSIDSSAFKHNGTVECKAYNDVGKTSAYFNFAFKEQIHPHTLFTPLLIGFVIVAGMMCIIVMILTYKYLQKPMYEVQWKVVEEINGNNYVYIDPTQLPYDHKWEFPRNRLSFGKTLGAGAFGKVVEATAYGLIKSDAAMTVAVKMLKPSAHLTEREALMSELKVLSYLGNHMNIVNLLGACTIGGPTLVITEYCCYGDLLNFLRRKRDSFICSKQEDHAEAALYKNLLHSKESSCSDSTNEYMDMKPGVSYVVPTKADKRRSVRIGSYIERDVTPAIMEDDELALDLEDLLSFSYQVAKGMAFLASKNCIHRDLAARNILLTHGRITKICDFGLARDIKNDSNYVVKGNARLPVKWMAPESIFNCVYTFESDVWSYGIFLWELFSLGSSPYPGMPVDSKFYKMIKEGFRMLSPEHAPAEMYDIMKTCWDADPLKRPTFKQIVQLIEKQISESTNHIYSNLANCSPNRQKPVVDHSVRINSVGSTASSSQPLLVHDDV
T2 sequence (P10721 other isoform, or with tags, fused parts or gaps): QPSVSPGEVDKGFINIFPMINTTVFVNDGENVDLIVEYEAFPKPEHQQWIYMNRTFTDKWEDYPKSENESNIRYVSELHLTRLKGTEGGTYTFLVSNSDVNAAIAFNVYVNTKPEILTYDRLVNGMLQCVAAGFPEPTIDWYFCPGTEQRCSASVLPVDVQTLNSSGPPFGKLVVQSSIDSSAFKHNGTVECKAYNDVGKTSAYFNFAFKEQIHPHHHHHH
T3 sequence (P10721 other isoform, or with tags, fused parts or gaps): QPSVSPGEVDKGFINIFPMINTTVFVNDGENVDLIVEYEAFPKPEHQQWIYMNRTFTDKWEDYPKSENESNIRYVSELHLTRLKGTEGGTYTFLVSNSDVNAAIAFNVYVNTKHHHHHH
T1 sequence (P10721 other isoform, or with tags, fused parts or gaps): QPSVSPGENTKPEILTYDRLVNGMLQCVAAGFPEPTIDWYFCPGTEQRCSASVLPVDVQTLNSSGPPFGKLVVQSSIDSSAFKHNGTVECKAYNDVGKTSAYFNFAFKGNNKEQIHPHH

B1: antibody 37M (antibody, V domains shown)
VH: QVQLKQSGAELVRPGASVKLSCKASGYTFTDYYINWVKQRPGQGLEWIARIYPGSGNTYYNEKFKGKATLTAEKSSSTAYMQLSSLTSEDSAVYFCARGVYYFDYWGQGTTLTVSS
VL: DIVMTQSQKFMSTSVGDRVSVTCKASQNVRTNVAWYQQKPGQSPKALIYSASYRYSGVPDRFTGSGSGTDFTLTISNVQSEDLADYFCQQYNSYPRTFGGGTKLEIKR
notes: also called anti-KIT antibody 37M; 37M antibody
Q: How did the EC50 [1] turn out when B1 was run?
A: > 3000 nM

Q: What about the EC50 [2] of the same binder?
A: 2.8 nM

Q: And the EC50 [3]?
A: ~0.572 nM

Q: And the “50% inhibition concentration (IC50) of SCF-induced KIT tyrosine phosphorylation, cell-based phospho-KIT assay, CHO/KIT-WT cells” value [4]?
A: ~0.109 nM

Q: What about the “IC50 of SCF-induced AKT phosphorylation (phospho-AKT assay), sorted CHO/KIT-WT cells” value [4] of the same binder?
A: ~0.138 nM

Q: And the “IC50 of SCF-induced KIT tyrosine phosphorylation, separate experiment (FIG. 11A), CHO/KIT-WT cells” value [4]?
A: ~0.096 nM

Q: And the EC50 [5]?
A: 0.115 nM
